Results as given in paper PMC3074120 (Nucleic Acids Research, 2010).

B1: NHA-Δ10 (GW182 fragment Δ10, amino acids 655-1343) (domain or fragment)
chain: QTNEQSSVWAKTGGTVESDGSTESTGRLEEKGTGESQSRDRRKIDQHTLLQSIVNRTDLDPRVLSNSGWGQTPIKQNTAWDTETSPRGERKTDNGTEAWGSSATQTFNSGACIDKTSPNGNDTSSVSGWGDPKPALRWGDSKGSNCQGGWEDDSAATGMVKSNQWGNCKEEKAAWNDSQKNKQGWGDGQKSSQGWSVSASDNWGETSRNNHWGEANKKSSSGGSDSDRSVSGWNELGKTSSFTWGNNINPNNSSGWDESSKPTPSQGWGDPPKSNQSLGWGDSSKPVSSPDWNKQQDIVGSWGIPPATGKPPGTGWLGGPIPAPAKEEEPTGWEEPSPESIRRKMEIDDGTSAWGDPSKYNYKNVNMWNKNVPNGNSRSDQQAQVHQLLTPASAISNKEASSGSGWGEPWGEPSTPATTVDNGTSAWGKPIDSGPSWGEPIAAASSTSTWGSSSVGPQALSKSGPKSMQDGWCGDDMPLPGNRPTGWEEEEDVEIGMWNSNSSQELNSSLNWPPYTKKMSSKGLSGKKRRRERGMMKGGNKQEEAWINPFVKQFSNISFSRDSPEENVQSNKMDLSGGMLQDKRMEIDKHSLNIGDYNRTVGKGPGSRPQISKESSMERNPYFDKDGIVADESQNMQFMSSQSMKLPPSNSALPNQALGSIAGLGMQNLNSVRQNGNPSMFGVGNTAAQ
B2: NHA-Δ12a (GW182 fragment Δ12a, amino acids 896-1045) (domain or fragment)
chain: FTWGNNINPNNSSGWDESSKPTPSQGWGDPPKSNQSLGWGDSSKPVSSPDWNKQQDIVGSWGIPPATGKPPGTGWLGGPIPAPAKEEEPTGWEEPSPESIRRKMEIDDGTSAWGDPSKYNYKNVNMWNKNVPNGNSRSDQQAQVHQLLTP
B3: NHA-Δ5 (GW182 fragment Δ5, amino acids 1670-1962) (domain or fragment)
chain: TSAWSSIRASNYNVPLSSTAQSTSARNSDSKLTWSPGSVTNTSLAHELWKVPLPPKNITAPSRPPPGLTGQKPPLSTWDNSPLRIGGGWGNSDARYTPGSSWGESSSGRITNWLVLKNLTPQIDGSTLRTLCMQHGPLITFHLNLPHGNALVRYSSKEEVVKAQKSLHMCVLGNTTILAEFASEEEISRFFAQSQSLTPSPGWQSLGSSQSRLGSLDCSHSFSSRTDLNHWNGAGLSGTNCGDLHGTSLWGTPHYSTSLWGPPSSSDPRGISSPSPINAFLSVDHLGGGGESM
B4: NHA-Δ12 (GW182 fragment Δ12, amino acids 896-1219) (domain or fragment)
chain: FTWGNNINPNNSSGWDESSKPTPSQGWGDPPKSNQSLGWGDSSKPVSSPDWNKQQDIVGSWGIPPATGKPPGTGWLGGPIPAPAKEEEPTGWEEPSPESIRRKMEIDDGTSAWGDPSKYNYKNVNMWNKNVPNGNSRSDQQAQVHQLLTPASAISNKEASSGSGWGEPWGEPSTPATTVDNGTSAWGKPIDSGPSWGEPIAAASSTSTWGSSSVGPQALSKSGPKSMQDGWCGDDMPLPGNRPTGWEEEEDVEIGMWNSNSSQELNSSLNWPPYTKKMSSKGLSGKKRRRERGMMKGGNKQEEAWINPFVKQFSNISFSRDSPE

Target: GST-PIWI (PIWI domain of Ago2) (human, UniProt Q9UKV8 517-818)
Sequence (Q9UKV8 517-818): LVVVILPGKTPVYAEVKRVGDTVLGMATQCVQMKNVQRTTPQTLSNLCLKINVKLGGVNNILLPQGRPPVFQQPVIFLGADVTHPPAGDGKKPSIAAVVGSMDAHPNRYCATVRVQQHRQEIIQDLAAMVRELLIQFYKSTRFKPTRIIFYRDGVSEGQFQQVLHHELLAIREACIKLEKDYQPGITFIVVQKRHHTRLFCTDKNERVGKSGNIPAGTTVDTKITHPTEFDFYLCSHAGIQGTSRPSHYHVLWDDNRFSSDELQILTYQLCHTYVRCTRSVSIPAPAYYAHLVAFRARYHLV
Experiment: pull-down

| Binder | percent pull-down (of input) [%] |
| --- | --- |
| B1 | ≤ 85 |
| B2 | 0.2 |
| B3 | 4.2 |
| B4 | 18 |
